Test system: endogenous PTP1B in Cos1 cells
Experiment: Colocalization of intrabody45 and PTP1B in Cos1 cells by immunofluorescence
Assay type: cell-based
Details: FIG. 14
Experimental: In order to verify the interaction between PTP1B-OX and scFv45 in mammalian cells, Applicant determined whether PTP and scFv45 colocalized after insulin stimulation, using immunofluorescence. Cos1 cells were grown on cover slips and transfected with scFv45 using Fugene6 as the transfection reagent according to manufacturer's instructions. The cells were serum starved 24 hours post transfection, for 16 hours at 37° C. and then stimulated with 25 nM insulin (in growth medium without serum) or left untreated. Following insulin treatment the cells were washed 2× with PBS and fixed with 5% formalin (in PBS) for 15 minutes at room temperature. The cells were washed with PBS three times at room temperature. The fixed cells were permeabilized with 0.5% Triton-X100 (in PBS) for 5 minutes at room temperature. Cells were rinsed with Wash Buffer [PBS, pH 7.4 with 0.1% BSA, 0.2% TritonX-100, 0.05% Tween-20 and 0.05% sodium azide] at room temperature. […] To quantify colocalization of PTP1B and intrabody45 from the merged images, 15 individual images were analyzed by Zeiss (LSM 710) Colocalization Viewer Software. The degree of colocalization of PTP1B and intrabody45 in each cell was expressed as colocalization coefficients that measure relative number of colocalizing pixels for the respective fluorophores for PTP1B and intrabody45, as compared to the total number of pixels. […]

B1: scFv45: conformation-sensor scFv binding PTP1B-OX, SEQ ID NO: 26 and 78; expressed as intrabody (protein)
scFv: MKKTAIAIAVALAGFATVAQAALTQPSSVSANPGGTVKITCSGSSSAYGYGWYQQKSPGSAPVTVIYNNNKRPSNIPSRFSGSKSGSTGTLTITGVQAEDEAVYFCGSEDSSTDAIFGAGTTLTVLGQSSRSSTVTLDESGGGLQAPGGALSLVCKASGFTFSSYDMGWIRQAPGKGLEYVAGITDNGRYASYGSAVDGRATISRDNGQSSVRLQLNNLRAEDTGTYYCARDDGSGWTGNSIDAWGHGTEVIVSSTSGQAGQHHHHHHGAYPYDVPDYAS
For B1, the “colocalization between PTP1B and intrabody” value (Cos1 cells without insulin stimulation) was “not significant” and the “colocalization between PTP1B and intrabody” value (Cos1 cells, stimulated with 25 nM insulin) was “Strong colocalization”.

Reference: patent US9074002B2, “PTP1B inhibitors” (Cold Spring Harbor Laboratory, priority 2009, dated 2015)
